Test results published in paper PMC4631650 (Current biology : CB, 2015).
Where a chain is given by its changes, count along the chain named. Names may count otherwise.

B1: RECQ1-WT (full-length His-tagged human RECQ1) (enzyme, UniProt P46063 1-649, looked up)
chain: MASVSALTEELDSITSELHAVEIQIQELTERQQELIQKKKVLTKKIKQCLEDSDAGASNEYDSSPAAWNKEDFPWSGKVKDILQNVFKLEKFRPLQLETINVTMAGKEVFLVMPTGGGKSLCYQLPALCSDGFTLVICPLISLMEDQLMVLKQLGISATMLNASSSKEHVKWVHAEMVNKNSELKLIYVTPEKIAKSKMFMSRLEKAYEARRFTRIAVDEVHCCSQWGHDFRPDYKALGILKRQFPNASLIGLTATATNHVLTDAQKILCIEKCFTFTASFNRPNLYYEVRQKPSNTEDFIEDIVKLINGRYKGQSGIIYCFSQKDSEQVTVSLQNLGIHAGAYHANLEPEDKTTVHRKWSANEIQVVVATVAFGMGIDKPDVRFVIHHSMSKSMENYYQESGRAGRDDMKADCILYYGFGDIFRISSMVVMENVGQQKLYEMVSYCQNISKCRRVLMAQHFDEVWNSEACNKMCDNCCKDSAFERKNITEYCRDLIKILKQAEELNEKLTPLKLIDSWMGKGAAKLRVAGVVAPTLPREDLEKIIAHFLIQQYLKEDYSFTAYATISYLKIGPKANLLNNEAHAITMQVTKSTQNSFRAESSQTCHSEQGDKKMEEKNSGNFQKKAANMLQQSGSKNTGAKKRKIDDA
B2: RECQ1-F231A (full-length His-tagged human RECQ1 aromatic loop mutant) (enzyme, UniProt P46063 1-649, looked up)
chain: B1 chain with F231A
B3: RECQ1-W227A (full-length His-tagged human RECQ1 aromatic loop mutant) (enzyme, UniProt P46063 1-649, looked up)
chain: B1 chain with W227A

Molecular target: the molecule itself
Test: SEC

Protein	binding result
B1	binds
B2	binds
B3	binds
